Experimental data taken from publication PMC4521846.
Like-named read-outs stand apart in the source and are kept apart here.

Experiments:
[1] = target: Plasminogen (Homo sapiens) (UniProt P00747); settings: cited from earlier work
[2] = target: Plasminogen (Homo sapiens) (UniProt P00747); settings: cited from earlier work; remark: listed apart in the source
[3] = target: Elongation factor Tuf of Legionella pneumophila, recombinant, hexahistidine-tagged (Legionella pneumophila); assay: ELISA
[4] = target: Translation elongation factor Tuf of Acinetobacter baumannii type strain ATCC 19606, recombinant, N-terminally hexahistidine-tagged (Acinetobacter baumannii ATCC 19606) (UniProt B7H1K5); assay: ELISA; immobilised TufAb, plasminogen (10 ug/ml) with increasing concentrations of NaBr (up to 1 M)
[5] = target: Translation elongation factor Tuf of Acinetobacter baumannii type strain ATCC 19606, recombinant, N-terminally hexahistidine-tagged (Acinetobacter baumannii ATCC 19606) (UniProt B7H1K5); assay: ELISA; immobilised TufAb, plasminogen (10 ug/ml) with increasing concentrations of the lysine analog tranexamic acid (up to 50 mM)
[6] = target: Translation elongation factor Tuf of Acinetobacter baumannii type strain ATCC 19606, recombinant, N-terminally hexahistidine-tagged (Acinetobacter baumannii ATCC 19606) (UniProt B7H1K5); assay: ELISA; immobilised Tuf (5 ug/ml) incubated with increasing amounts of plasminogen; apparent dissociation constants by non-linear regression

With Enolase (from UniProt B8DTI9) as the substance, how does the Kd [1] read?
The Kd was 42 nM.

Which Kd [2] does the source give for DnaK (from UniProt B8DT62) here?
Its Kd is 11 nM.

Which Kd [3] does the source give for Human glu-plasminogen (natural protein) here?
Its Kd is 69 nM.

And the percent of binding left with 1 M NaBr, against reactions without NaBr [4]?
The percent of binding left with 1 M NaBr, against reactions without NaBr was 55%.

What about the percent decrease of binding with 50 mM tranexamic acid, against reactions without it [5] of the same substance?
The percent decrease of binding with 50 mM tranexamic acid, against reactions without it was 50%.

And the Kd [6]?
The Kd was 57 nM.
